The record followed here is paper PMC12170906.

The data set concerns the target RNAP-SigA holoenzyme (Mycobacterium tuberculosis, UniProt P9WGZ1;P9WGY9;P9WGY7;P9WGI1 1-347;1-1178;1-1316;1-528). The data set can be described thus: EMSA; 100-200 nM RNAP, heparin. The following applies: protein: recombinant; chain copies: 2;1;1;1; blunt.

RNAP-SigA holoenzyme, sequence (P9WGZ1 whole entry, chain 1 of 4): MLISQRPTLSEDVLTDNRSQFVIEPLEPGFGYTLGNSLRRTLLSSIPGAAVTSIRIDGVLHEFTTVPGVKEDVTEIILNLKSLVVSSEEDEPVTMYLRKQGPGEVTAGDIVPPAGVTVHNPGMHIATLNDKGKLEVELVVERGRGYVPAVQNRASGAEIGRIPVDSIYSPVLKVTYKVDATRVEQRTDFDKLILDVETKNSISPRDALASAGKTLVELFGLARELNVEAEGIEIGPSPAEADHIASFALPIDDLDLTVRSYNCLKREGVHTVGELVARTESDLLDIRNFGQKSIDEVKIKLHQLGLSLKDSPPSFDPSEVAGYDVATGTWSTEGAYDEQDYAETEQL
RNAP-SigA holoenzyme, sequence (P9WGY9 whole entry, chain 2 of 4): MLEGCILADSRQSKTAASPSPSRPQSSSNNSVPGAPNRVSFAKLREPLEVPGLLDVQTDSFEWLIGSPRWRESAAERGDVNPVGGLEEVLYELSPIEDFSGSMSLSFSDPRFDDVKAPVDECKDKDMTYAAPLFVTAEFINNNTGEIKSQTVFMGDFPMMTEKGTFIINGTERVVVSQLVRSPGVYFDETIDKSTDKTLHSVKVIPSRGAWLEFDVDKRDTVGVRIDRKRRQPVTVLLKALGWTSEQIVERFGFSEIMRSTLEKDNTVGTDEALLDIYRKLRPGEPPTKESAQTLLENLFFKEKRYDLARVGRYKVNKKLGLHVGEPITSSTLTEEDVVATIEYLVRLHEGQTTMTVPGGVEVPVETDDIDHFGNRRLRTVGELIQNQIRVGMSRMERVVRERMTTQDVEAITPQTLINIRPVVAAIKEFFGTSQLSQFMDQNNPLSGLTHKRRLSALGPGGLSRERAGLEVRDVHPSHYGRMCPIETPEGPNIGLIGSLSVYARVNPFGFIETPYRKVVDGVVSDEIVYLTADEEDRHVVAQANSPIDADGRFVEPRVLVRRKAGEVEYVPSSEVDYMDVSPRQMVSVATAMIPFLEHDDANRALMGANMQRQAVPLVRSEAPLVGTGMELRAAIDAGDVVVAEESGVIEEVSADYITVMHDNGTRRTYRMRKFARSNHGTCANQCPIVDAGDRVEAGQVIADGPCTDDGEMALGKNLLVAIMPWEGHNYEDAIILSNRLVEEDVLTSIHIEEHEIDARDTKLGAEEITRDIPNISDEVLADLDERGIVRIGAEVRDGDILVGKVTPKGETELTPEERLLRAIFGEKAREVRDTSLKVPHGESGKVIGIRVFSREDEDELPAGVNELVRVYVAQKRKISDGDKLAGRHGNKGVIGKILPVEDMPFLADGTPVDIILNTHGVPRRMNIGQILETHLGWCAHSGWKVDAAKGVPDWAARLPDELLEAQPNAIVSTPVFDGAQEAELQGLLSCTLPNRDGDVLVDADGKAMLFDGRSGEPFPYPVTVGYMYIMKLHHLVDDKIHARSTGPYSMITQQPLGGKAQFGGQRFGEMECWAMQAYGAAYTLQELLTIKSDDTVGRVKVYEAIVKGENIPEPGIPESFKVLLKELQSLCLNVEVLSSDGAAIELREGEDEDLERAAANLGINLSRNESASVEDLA
RNAP-SigA holoenzyme, sequence (P9WGY7 whole entry, chain 3 of 4): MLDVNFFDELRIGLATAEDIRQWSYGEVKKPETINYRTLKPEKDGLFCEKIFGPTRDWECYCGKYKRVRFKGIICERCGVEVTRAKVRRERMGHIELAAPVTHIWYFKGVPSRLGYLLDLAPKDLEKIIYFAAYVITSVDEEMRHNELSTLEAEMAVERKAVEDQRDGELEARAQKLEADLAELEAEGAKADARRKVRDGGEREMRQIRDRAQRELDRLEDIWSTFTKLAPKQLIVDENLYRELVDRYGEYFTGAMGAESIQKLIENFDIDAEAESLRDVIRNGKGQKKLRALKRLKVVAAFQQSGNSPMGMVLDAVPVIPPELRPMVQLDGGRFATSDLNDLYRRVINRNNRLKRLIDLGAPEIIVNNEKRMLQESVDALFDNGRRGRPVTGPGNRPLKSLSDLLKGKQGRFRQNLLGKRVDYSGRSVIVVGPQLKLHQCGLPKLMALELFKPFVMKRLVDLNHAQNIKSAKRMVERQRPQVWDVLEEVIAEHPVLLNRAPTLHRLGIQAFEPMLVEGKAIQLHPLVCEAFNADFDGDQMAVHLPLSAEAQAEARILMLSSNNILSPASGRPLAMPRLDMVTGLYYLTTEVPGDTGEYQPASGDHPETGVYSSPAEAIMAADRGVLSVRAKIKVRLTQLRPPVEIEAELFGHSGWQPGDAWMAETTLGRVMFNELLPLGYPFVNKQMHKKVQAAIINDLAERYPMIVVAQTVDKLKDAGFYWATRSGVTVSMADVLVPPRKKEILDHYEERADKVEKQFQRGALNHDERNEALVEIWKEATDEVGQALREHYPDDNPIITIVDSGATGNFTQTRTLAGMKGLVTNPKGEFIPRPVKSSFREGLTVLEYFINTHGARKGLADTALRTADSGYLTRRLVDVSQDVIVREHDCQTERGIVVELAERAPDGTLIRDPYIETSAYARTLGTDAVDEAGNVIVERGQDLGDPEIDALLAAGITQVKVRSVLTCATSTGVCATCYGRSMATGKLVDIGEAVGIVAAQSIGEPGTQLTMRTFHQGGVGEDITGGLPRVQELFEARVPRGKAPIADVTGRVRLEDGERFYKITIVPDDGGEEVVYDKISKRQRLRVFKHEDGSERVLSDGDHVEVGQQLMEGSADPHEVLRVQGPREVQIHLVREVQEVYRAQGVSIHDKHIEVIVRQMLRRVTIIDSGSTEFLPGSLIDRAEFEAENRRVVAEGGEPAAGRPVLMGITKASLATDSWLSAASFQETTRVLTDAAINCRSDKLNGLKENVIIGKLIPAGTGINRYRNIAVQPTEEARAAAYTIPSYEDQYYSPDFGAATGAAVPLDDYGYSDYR
RNAP-SigA holoenzyme, sequence (P9WGI1 whole entry, chain 4 of 4): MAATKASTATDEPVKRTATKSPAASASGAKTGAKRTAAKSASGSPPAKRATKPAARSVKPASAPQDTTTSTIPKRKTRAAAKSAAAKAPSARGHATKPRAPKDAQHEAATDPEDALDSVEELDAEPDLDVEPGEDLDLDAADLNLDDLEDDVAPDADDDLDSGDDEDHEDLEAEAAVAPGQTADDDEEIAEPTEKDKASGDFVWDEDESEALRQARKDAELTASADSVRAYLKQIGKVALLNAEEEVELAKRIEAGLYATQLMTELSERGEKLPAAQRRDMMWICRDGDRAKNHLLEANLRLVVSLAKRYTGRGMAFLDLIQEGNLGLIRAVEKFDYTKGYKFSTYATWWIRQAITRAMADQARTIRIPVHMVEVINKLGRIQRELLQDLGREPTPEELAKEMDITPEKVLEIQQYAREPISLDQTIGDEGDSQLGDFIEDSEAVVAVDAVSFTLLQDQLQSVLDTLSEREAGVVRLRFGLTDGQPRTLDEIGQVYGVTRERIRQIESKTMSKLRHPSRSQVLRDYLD

B1: rrnAP3 promoter (dsDNA)
DNA 1: CTATGGATGACCGAACCTGGTCTTGACTCCATTGCCGGATTTGTATTAGACTGGCAGGGTCGCCCCGAAGCGGGCGGAAACAAGCAAGCGTGTTGTTTGAGAACTC
DNA 2: GAGTTCTCAAACAACACGCTTGCTTGTTTCCGCCCGCTTCGGGGCGACCCTGCCAGTCTAATACAAATCCGGCAATGGAGTCAAGACCAGGTTCGGTCATCCATAG
As to B1, the binding result is given as “binds”.
